Literature values in US20160114005A1, “HYBRID PROTEIN THAT CONVERTS ARACHIDONIC ACID INTO PROSTACYCLIN” (UNIVERSITY OF HOUSTON SYSTEM, priority 2006, published 2016).
Values joined by “and” are separate entries in the source; they are usually repeats but may differ in a detail not shown here. Identical values can stand only once. Like-named read-outs stand apart in the source and are kept apart here.

B1: PGIS: Individual prostacyclin synthase enzyme (protein, UniProt Q16647 1-500, looked up)
Prostacyclin synthase: MAWAALLGLLAALLLLLLLSRRRTRRPGEPPLDLGSIPWLGYALDFGKDAASFLTRMKEKHGDIFTILVGGRYVTVLLDPHSYDAVVWEPRTRLDFHAYAIFLMERIFDVQLPHYSPSDEKARMKLTLLHRELQALTEAMYTNLHAVLLGDATEAGSGWHEMGLLDFSYSFLLRAGYLTLYGIEALPRTHESQAQDRVHSADVFHTFRQLDRLLPKLARGSLSVGDKDHMCSVKSRLWKLLSPARLARRAHRSKWLESYLLHLEEMGVSEEMQARALVLQLWATQGNMGPAAFWLLLFLLKNPEALAAVRGELESILWQAEQPVSQTTTLPQKVLDSTPVLDSVLSESLRLTAAPFITREVVVDLAMPMADGREFNLRRGDRLLLFPFLSPQRDPEIYTDPEVFKYNRFLNPDGSEKKDFYKDGKRLKNYNMPWGAGHNHCLGRSYAVNSIKQFVFLVLVHLDLELINADVEIPEFDLSRYGFGLMQPEHDVPVRYRIRP

Molecule	Km (individual COX2, previously characterized by several groups)	Km (individual PGIS, previously characterized by several groups)
COX2: Individual cyclooxygenase isoform-2 enzyme [reference compound]	6.5 µM and 0.9 µM	
B1		13.3 µM and 30 µM and 9.5 µM
